Legend:
Flag-HER3 (T355I) = biological target: T1, Flag-HER3 (T355I) (human, UniProt P21860 1-1342); assay: flow cytometry on HER2-overexpressing and HER3-stably expressing MDA-MB-231 cells, 0.1 to 100 nM
T1 construct: The entry already carries the mutation; Stably expressed in MDA-MB-231 cells, with or without HER2 overexpression; also called mutant-type HER3 (T355I)
Protocol: (§1) Wild-type and various kinds of mutant-type HER3-introduced MDA-MB-231 cells were cultured with RPMI1640 medium (available from Thermo Fisher […] K.K.) containing 10% FBS (available from Hyclone Laboratories, Inc). The cells were separated from the culture plate with TrypLE® Express Enzyme (available from Thermo Fisher […] K.K.), to measure the number of living cells by trypan blue treatment. The same number of living cells were added to a 96-well U-bottom plate, then the cells were precipitated by centrifugation, and the medium was replaced with Stain Buffer (available from Becton, Dickinson and Company). […] The cells were allowed to react on ice for 60 minutes and then washed with Stain Buffer. Further, 100 μL of Stain Buffer or a secondary antibody (Goat anti-Human IgG (H+L) Cross-Adsorbed Secondary Antibody, Alexa Fluor647, Thermo Fisher […] K.K., #A-21445) diluted to 10 μg/mL was added thereto, and the cells were suspended therein. After the cells were allowed to react in the dark on ice for 60 minutes and then washed with Stain Buffer. After the cells were suspended in 100 μL of Stain Buffer, an equal amount of 4% paraformaldehyde phosphate buffer (Wako Pure Chemical Industries, Ltd.) was added thereto, and the mixture was reacted in the dark on ice for 20 minutes. After washing with a Stain Buffer, fluorescence signals were measured using Attune NxT Flow Cytometer (available from Thermo Fisher […] K.K.), and the measurement results were analyzed using FlowJo software (Version 10.5.0, available from Becton, Dickinson and Company).

Flag-HER3 (V104L) = biological target: T2, Flag-HER3 (V104L) (human, UniProt P21860 1-1342); assay: as above
T2 construct: The entry already carries the mutation; Stably expressed in MDA-MB-231 cells, with or without HER2 overexpression; also called mutant-type HER3 (V104L)
Protocol: as §1

Flag-HER3 (V104M) = biological target: T3, Flag-HER3 (V104M) (human, UniProt P21860 1-1342); assay: as above
T3 construct: The entry already carries the mutation; Stably expressed in MDA-MB-231 cells, with or without HER2 overexpression; also called mutant-type HER3 (V104M)
Protocol: as §1

Flag-HER3 (A232V) = biological target: T4, Flag-HER3 (A232V) (human, UniProt P21860 1-1342); assay: as above
T4 construct: The entry already carries the mutation; Stably expressed in MDA-MB-231 cells, with or without HER2 overexpression; also called mutant-type HER3 (A232V)
Protocol: as §1

Flag-HER3 (P262H) = biological target: T5, Flag-HER3 (P262H) (human, UniProt P21860 1-1342); assay: as above
T5 construct: The entry already carries the mutation; Stably expressed in MDA-MB-231 cells, with or without HER2 overexpression; also called mutant-type HER3 (P262H)
Protocol: as §1

Flag-HER3 (G284R) = biological target: T6, Flag-HER3 (G284R) (human, UniProt P21860 1-1342); assay: as above
T6 construct: The entry already carries the mutation; Stably expressed in MDA-MB-231 cells, with or without HER2 overexpression; also called mutant-type HER3 (G284R)
Protocol: as §1

Flag-HER3 (D297Y) = biological target: T7, Flag-HER3 (D297Y) (human, UniProt P21860 1-1342); assay: as above
T7 construct: The entry already carries the mutation; Stably expressed in MDA-MB-231 cells, with or without HER2 overexpression; also called mutant-type HER3 (D297Y)
Protocol: as §1

Flag-HER3 (G325R) = biological target: T8, Flag-HER3 (G325R) (human, UniProt P21860 1-1342); assay: as above
T8 construct: The entry already carries the mutation; Stably expressed in MDA-MB-231 cells, with or without HER2 overexpression; also called mutant-type HER3 (G325R)
Protocol: as §1

Flag-HER3 (S846I) = biological target: T9, Flag-HER3 (S846I) (human, UniProt P21860 1-1342); assay: flow cytometry on HER3-stably expressing MDA-MB-231 cells without HER2 overexpression, 0.1 to 100 nM
T9 construct: The entry already carries the mutation; Stably expressed in MDA-MB-231 cells, with or without HER2 overexpression; also called mutant-type HER3 (S846I)
Protocol: as §1

Flag-HER3 (E928G) = biological target: T10, Flag-HER3 (E928G) (human, UniProt P21860 1-1342); assay: as above
T10 construct: The entry already carries the mutation; Stably expressed in MDA-MB-231 cells, with or without HER2 overexpression; also called mutant-type HER3 (E928G)
Protocol: as §1

Flag-HER3 (WT) = biological target: T11, Flag-HER3 (WT) (human, UniProt P21860 1-1342); assay: as above
T11 construct: Flag-tagged full-length HER3 stably expressed in MDA-MB-231 cells, with or without HER2 overexpression; also called wild-type HER3
Protocol: as §1

Flag-HER3 (Q809R) = biological target: T12, Flag-HER3 (Q809R) (human, UniProt P21860 1-1342); assay: flow cytometry on HER2-overexpressing and HER3-stably expressing MDA-MB-231 cells, same method as Example 3
T12 construct: The entry already carries the mutation; Stably expressed in HER2-overexpressing MDA-MB-231 cells; also called mutant-type HER3 (Q809R)
Protocol: as §1, with “After the cells were suspended in 100 μL of Stain Buffer, an equal amount of 4% paraformaldehyde phosphate buffer (Wako Pure Chemical Industries, Ltd.) was added thereto, and the mixture was reacted in the dark on ice for 20 minutes.” left out

Measured: binding result

B1: HER3-ADC (1) (antibody, human IgG1, kappa, V domains shown)
VH: QVQLQQWGAGLLKPSETLSLTCAVYGGSFSGYYWSWIRQPPGKGLEWIGEINHSGSTNYNPSLKSRVTISVETSKNQFSLKLSSVTAADTAVYYCARDKWTWYFDLWGRGTLVTVSS
VL: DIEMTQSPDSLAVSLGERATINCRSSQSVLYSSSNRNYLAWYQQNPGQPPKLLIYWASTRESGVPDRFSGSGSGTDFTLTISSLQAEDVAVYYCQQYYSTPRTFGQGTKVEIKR
modifications: drug-linker (exatecan derivative) conjugated via a thioether bond to cysteine thiols formed at interchain disulfide sites; drug-linker (exatecan derivative) conjugated via a thioether bond to cysteine thiols formed at interchain disulfide sites; average number of conjugated drug molecules per antibody molecule in the range of 7 to 8
notes: also called anti-HER3 antibody-drug conjugate; conjugate of HER3-Ab (1)
binds: all assays above
